# Assay results taken from the nanobody polyreactivity screen of Harvey et al. (2022).
# Experiment: yeast display, Sf9 membrane polyspecificity reagent, FACS + sequencing; frameworks hold sequencing errors
# Method in brief: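 After 36–48 hours of galactose induction, yeast (Saccharomyces cerevisiae BJ5465) displaying a synthetic nanobody library were stained at 4 °C for 1 hour with 10% biotinylated, detergent-solubilized Sf9 membrane reagent. Streptavidin microbeads enriched the stained cells before FACS sorting into low and high (top ~1%) gates on anti-HA and streptavidin fluorescence. Each clone's polyreactivity label reflects its gate of origin.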
row,Sequence,polyreactivity (PSR sort gate)
1,QVQLVESGGGLVQARGSLRLICAASGRIFPDYGMGWYRQAPGKESEFDAVIDWIGVSTYYADSVKGRFTISRDNAKNTVYLQINSLKPEDTAVYYCNAEYAFPSPKSSLDYWGQGTQVTVSS,low polyreactivity
2,QVQLVESGGGLVQARGSLRLSCAACGSTFYWYPLGWSRQAPGTERELVATLTSVGRTNYADSVKGRFTISRDNAKNSVYLQMNRLNPEDTAVYYCAASKARWPRGGSRGGMGYWGQGTQVTVSS,high polyreactivity
3,QVQLVESGGGLVQARGSLRLSCAASAFIIPVYTIGWYRQAPGKERELVAAITQIGGSTHYADSVKGRFTISRANAKNTVYLQMNSLKPEDTAVYYCAVDYDSYWYGTYVNEYDYWGLGTQVTVSS,low polyreactivity
4,QVQLVESGGGLVQARGSLRLSCAASGFTFERYTMGWYRQAPGKERELVATISRRSGRTSYADSVKGRFTISRDNEMNSVYLQMNSLKPEDTAVYYCAVDDAYPDRYDYWGQGPQVTVSS,high polyreactivity
5,QVQLVESGGGLVQARGSLRLSCAASGIIFLVNDMGWYRQAPGKVRELVAAITYSGDGTFYADSVKGRFTISRDNAKNTVYLQMNSLKPEDTAVYYCAADLPESPESYYHTDDYWGQGTQGTVSS,low polyreactivity
6,QVQLVESGGGLVQARGSLRLSCAASGITFNRYVMGWYRQAPGKERELVAAISRTGGSTYYADSVKGRFTISRDNAKNTDFLQMNSLKPEDTAVYYCAAATSPGIYDYWGQGTQVTVSS,high polyreactivity
7,QVQLVESGGGLVQARGSLRLSCAASGITFSRNVMGWYRQAPGKERELVAAISRSGGRTYYADSVKGRFTISRDNAKNTVYLQMNSLKPEVTAVYYCNRDIGGTTVLDDYCGQGTQVTVSS,low polyreactivity
8,QVQLVESGGGLVQARGSLRLSCAASGRIFRKYDMGWYRQAPGKERELVAAISGTGITYYADSVKGRFTISRDNAKNTVYLQMNSMKPEDTAVYYCARGSKPRAWSWAYPSDTSIYDYWGQGTQVTVSS,low polyreactivity
9,QVQLVESGGGLVQARGSLRLSCAASGRIFWSNAMGWYRQAPGKERELVAAISYSGDSTYYADSVKGRFTISRDNAKNTVYIQMKSLKPEDTAVYYCTAVGHRSYRYDYWGQGTQVTVSS,high polyreactivity
10,QVQLVESGGGLVQARGSLRLSCAASGRTFGPYAMGWYRQAPGKERELVAAISSSEGSTYYADSVKGRFTISRDIAKYSVYLQMNSMKPEDTAVYYCNARYYLWSTTRWYGYDYWGQGTQVTVSS,high polyreactivity
11,QVQLVESGGGLVQARGSLRLSCAASGSIFLYYAMGWYRQAPGKEREFVAAISIIGGSTYYADSVKGRFTISRDNAKNTVYLQMNSLKPEDTAVYYCAADYYYHRWTSVEGGYWGQGTQVTVSS,low polyreactivity
12,QVQLVESGGGLVQARGSLRLSCAASGSIFRSYAMGWYRQAPGKERELVAAITSGGNTYYADSVKGRFTISRDNAKNTVYLQMNSLKPEDTAVYYCAKRRYNYLSDYDYWGQGTQVTVSS,low polyreactivity
13,QVQLVESGGGLVQARGSLRLSCAASGSIFYYNTMGSDRQAPGKEREFVAAITYSGGSTYYSDSVKGRFTISRDKAKKTVYLLMNSLKPEDTAVYYCAAYIFYFSGGLNNRGTRGYWGQGTQVTVSS,low polyreactivity
14,QVQLVESGGGLVQARGSLRLSCAASGSTFGRYVMGWYRQAPGKERELVAAISKNAGSTYYADSVKGRFTISRDNAKNTVYLQMTSLKPEDTAVYYCAADWRTKGYDSLGQGTQVTVSS,high polyreactivity
15,QVQLVESGGGLVQARGSLRLSCAASGSTFPYYAMGWYRQAPGKARELVAAITSSTGRTYYADSVKGRFTISRDNAKNTVYLQMNSLKPEDTAVYYSNAEVYSDPYNDHDYWGQGTQVTVSS,low polyreactivity
16,QVQLVESGGGLVQARGSLRLSCAASGSTFVQNAMGWYRQAPGKEREFVAAIRVSGDNTYYADSVKGRFTISLDNAKNTVYLQMNSLKPEDTAVYYFAATGTFVGSVDYWGQGTQVTVSS,low polyreactivity

row,Sequence,polyreactivity (PSR sort gate)
1,QVQLVESGGGLVQARGSLRLSCAASGSTLRRYAMGWYRQAPGKERELVAAISSSGGSTYYADSVKGRFTISRDNAKNTVYLQMNSLKPEDTAVYYCAALVRKRVNTYQGYYPGDYWGQGTQGTVSS,high polyreactivity
2,QVQLVESGGGLVQARGSLRLSCAASGSTVGYNAMGWYRQAPGKERELVAAISGNGGSTYADSVKGRFTISRDNAKNTVYLQMNSLKPEDTAVYYCAAVQYGYGLASDSIFDYWGQGTQVTVSS,high polyreactivity
3,QVQLVESGGGLVQARGSLRLSCAASVITFRHNTMGWYRQAPGKERELVSTNYADSVKGRFTISRDNAKNTVYLQMNSLKQEDTAVYYCNADGTFEYDYWGQGTQVTVSS,low polyreactivity
4,QVQLVESGGGLVQARGSLRLSCAATGRTFQIYAMGWYRQAPGKERELVAAISSGGRTNYADSVKGRFTISRDNAKNTVYLQMNSLKPEDTAVYYCAKRWARPGMDYWGQGTQVTVSS,high polyreactivity
5,QVQLVESGGGLVQARGSLRLSCASSGRTFYTYAMGWYRQAPGKERELVAAIRRVGSTNYADSVKGRFTISRDNAKNTGYLQMNSLKPEDTAVYYCAVRLVWPWQGYDYWGQGTQVTVSS,low polyreactivity
6,QVQLVESGGGLVQARGSLRLSCASSGSIFGWNAMGGYRQAPGKERELVAAISSVGSTYYADSVKGRFTISRDNAKNTVYLQMNSLKPEDTAVYYCAAPVIQITDVWYDAETYPDYDYWGEGTQVTVSS,low polyreactivity
7,QVQLVESGGGLVQARGSLRLSSAASGIIFYEYAMGCYRQAPGKERELVAAISDTGGSTYYADSVKGRFTISRDNAKNTVYLQMNSLKPEDTAVYYCAAEYLAYYSGYDYWGQGTQVTVSS,high polyreactivity
8,QVQLVESGGGLVQARGSLRLSSAPSGRTFTVYAMGWYRHARGKERELVAAIRRTGSTYYADSVKGRFTISRDNAKNTVYLQMNSLKPEDTAVYYCYARPSTGWSIYGVDYWGQGTQGTVSS,low polyreactivity
9,QVQLVESGGGLVQARGSLRLSWAASGSTFQVYAMGWSRPAPGKERELVAAINYSGGSTYYADSVKGRFTISRDNAKNTVYVLMNSLKPEDTAVYYCAVKLRSRAGTSYGYWGQGTQVTVSS,high polyreactivity
10,QVQLVESGGGLVQARGSLRLTCAASGYIFSAYAMGWYRQAPGKERELVAAISRGGSTKYADSVKGRFTISRDNAKNTVSLQMNSVKPEDPAVYDCATVVYHRRPPRTGHEYWGQGTQVTVSS,high polyreactivity
11,QVQLVESGGGLVQARGTLRLSCAASGFTVFSYAMGWYRQAPGKESELVASISGSSSTYYADSVKGRFTISRDNAKNTVSVQMNSLTPDDTAVYYCAVDYHQAWPSGDYWFEYDYWGQGTQVTVSS,low polyreactivity
12,QVQLVESGGGLVQARRSLRLSCAASGITFVFYTMGWYRQAPGKERELVAAITSSGVRTSYADSVKGRFTISRDNAMNTVYLQMNSLKPEDTAVYYCAAKPTYVHKPGYNYWGQGTQVTVSS,high polyreactivity
13,QVQLVESGGGLVQARRSLRLSCAASGSTFVGNTMGWYRQAPGTERELVAAISRRGGGTNYADSVKGRFTISRDNAKNTVYLQMNSLKPEDTAVYYCAAKLVYPGKFNYWGQGTQVTVSS,high polyreactivity
14,QVQLVESGGGLVQARVSLRLSCPASGRIFARYALGSSRQAPGTEREFVAAISRGGSTKYADSEKGRFTISRDNAKNTVYLQMNSLKPEDTAVYYCARQLWGSAYGAYYAGDYWGQGTQVTVSS,low polyreactivity
15,QVQLVESGGGLVQARVSLRLSSAASGFIIYPYVMGWYRQAPGKERELVATIRTDGRTSYADSVKGRFTISRDNAKNTFYLQMNSLKPEDTAVYYCDARSPLYYIVPYELVQYDYWGLGTQVTVSS,high polyreactivity
